# Laboratory results published in IntAct's records for PubMed 31515488.
# B1: Embryonal Fyn-associated substrate (Homo sapiens), O43281 (parent)
# chain: MAIATSTQLARALYDNTAESPQELSFRRGDVLRVLQREGAGGLDGWCLCSLHGQQGIVPANRVKLLPAGPAPKPSLSPASPAQPGSPYPAPDHSNEDQEVYVVPPPARPCPTSGPPAGPCPPSPDLIYKIPRASGTQLAAPRDALEVYDVPPTALRVPSSGPYDCPASFSHPLTRVAPQPPGEDDAPYDVPLTPKPPAELEPDLEWEGGREPGPPIYAAPSNLKRASALLNLYEAPEELLADGEGGGTDEGIYDVPLLGPEAPPSPEPPGALASHDQDTLAQLLARSPPPPHRPRLPSAESLSRRPLPALPVPEAPSPSPVPSPAPGRKGSIQDRPLPPPPPRLPGYGGPKVEGDPEGREMEDDPAGHHNEYEGIPMAEEYDYVHLKGMDKAQGSRPPDQACTGDPELPERGMPAPQEALSPGEPLVVSTGDLQLLYFYAGQCQSHYSALQAAVAALMSSTQANQPPRLFVPHSKRVVVAAHRLVFVGDTLGRLAASAPLRAQVRAAGTALGQALRATVLAVKGAALGYPSSPAIQEMVQCVTELAGQALQFTTLLTSLAP
# B2: Sulfotransferase 1A1 (Homo sapiens), P50225 (parent)
# chain: MELIQDTSRPPLEYVKGVPLIKYFAEALGPLQSFQARPDDLLISTYPKSGTTWVSQILDMIYQGGDLEKCHRAPIFMRVPFLEFKAPGIPSGMETLKDTPAPRLLKTHLPLALLPQTLLDQKVKVVYVARNAKDVAVSYYHFYHMAKVHPEPGTWDSFLEKFMVGEVSYGSWYQHVQEWWELSRTHPVLYLFYEDMKENPKREIQKILEFVGRSLPEETVDFVVQHTSFKEMKKNPMTNYTTVPQEFMDHSISPFMRKGMAGDWKTTFTVAQNERFDADYAEKMAGCSLSFRSEL
# partner: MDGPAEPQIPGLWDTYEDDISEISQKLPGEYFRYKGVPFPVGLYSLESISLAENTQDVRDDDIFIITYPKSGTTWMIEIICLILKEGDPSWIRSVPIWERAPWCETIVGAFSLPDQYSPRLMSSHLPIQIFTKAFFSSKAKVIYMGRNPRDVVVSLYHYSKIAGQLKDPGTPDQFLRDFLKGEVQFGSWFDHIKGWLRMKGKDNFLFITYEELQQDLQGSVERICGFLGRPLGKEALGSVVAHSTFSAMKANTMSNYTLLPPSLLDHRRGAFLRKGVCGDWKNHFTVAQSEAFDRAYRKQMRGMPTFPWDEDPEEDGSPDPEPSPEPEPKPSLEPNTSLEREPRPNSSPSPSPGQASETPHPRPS
# B3: "Dol-P-Man:Man(5)GlcNAc(2)-PP-Dol alpha-1,3-mannosyltransferase" (Homo sapiens), Q92685 (parent)
# chain: MAAGLRKRGRSGSAAQAEGLCKQWLQRAWQERRLLLREPRYTLLVAACLCLAEVGITFWVIHRVAYTEIDWKAYMAEVEGVINGTYDYTQLQGDTGPLVYPAGFVYIFMGLYYATSRGTDIRMAQNIFAVLYLATLLLVFLIYHQTCKVPPFVFFFMCCASYRVHSIFVLRLFNDPVAMVLLFLSINLLLAQRWGWGCCFFSLAVSVKMNVLLFAPGLLFLLLTQFGFRGALPKLGICAGLQVVLGLPFLLENPSGYLSRSFDLGRQFLFHWTVNWRFLPEALFLHRAFHLALLTAHLTLLLLFALCRWHRTGESILSLLRDPSKRKVPPQPLTPNQIVSTLFTSNFIGICFSRSLHYQFYVWYFHTLPYLLWAMPARWLTHLLRLLVLGLIELSWNTYPSTSCSSAALHICHAVILLQLWLGPQPFPKSTQHSKKAH
# partner: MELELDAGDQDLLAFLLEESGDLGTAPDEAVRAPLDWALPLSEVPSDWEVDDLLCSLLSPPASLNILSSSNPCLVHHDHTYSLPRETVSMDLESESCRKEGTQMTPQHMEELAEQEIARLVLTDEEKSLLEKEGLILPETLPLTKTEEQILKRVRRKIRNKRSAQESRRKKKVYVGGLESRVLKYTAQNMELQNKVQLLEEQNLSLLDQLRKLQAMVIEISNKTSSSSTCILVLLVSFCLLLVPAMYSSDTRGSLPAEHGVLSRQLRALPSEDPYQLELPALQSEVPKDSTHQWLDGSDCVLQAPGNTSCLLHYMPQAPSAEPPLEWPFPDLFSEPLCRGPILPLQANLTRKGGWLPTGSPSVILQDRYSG
# B4: Isoform 6 of F-box only protein 11 (Homo sapiens), Q86XK2-6 (parent)
# chain: MVAEESGPGAQNSPYQLRRKTLLPKRTACPTKNSMEGASTSTTENFGHRAKRARVSGKSQDLSAAPAEQYLQEKLPDEVVLKIFSYLLEQDLCRAACVCKRFSELANDPILWKRLYMEVFEYTRPMMHPEPGKFYQINPEEYEHPNPWKESFQQLYKGAHVKPGFAEHFYSNPARYKGRENMLYYDTIEDALGGVQEAHFDGLIFVHSGIYTDEWIYIESPITMIGAAPGKVADKVIIENTRDSTFVFMEGSEDAYVGYMTIRFNPDDKSAQHHNAHHCLEITVNCSPIIDHCIIRSTCTVGSAVCVSGQGACPTIKHCNISDCENVGLYITDHAQGIYEDNEISNNALAGIWVKNHGNPIIRRNHIHHGRDVGVFTFDHGMGYFESCNIHRNRIAGFEVKAYANPTVVRCEIHHGQTGGIYVHEKGRGQFIENKIYANNFAGVWITSNSDPTIRGNSIFNGNQGGVYIFGDGRGLIEGNDIYGNALAGIQIRTNSCPIVRHNKIHDGQHGGIYVHEKGQGVIEENEVYSNTLAGVWVTTGSTPVLRRNRIHSGKQVGVYFYDNGHGVLEDNDIYNHMYSGVQIRTGSNPKIRRNKIWGGQNGGILVYNSGLGCIEDNEIFDNAMAGVWIKTDSNPTLRRNKIHDGRDGGICIFNGGRGLLEENDIFRNAQAGVLISTNSHPILRKNRIFDGFAAGIEITNHATATLEGNQIFNNRFGGLFLASGVNVTMKDNKIMNNQDAIEKAVSRGQCLYKISSYTSYPMHDFYRCHTCNTTDRNAICVNCIKKCHQGHDVEFIRHDRFFCDCGAGTLSNPCTLAGEPTHDTDTLYDSAPPIESNTLQHN
# B5: Protein FAM9B (Homo sapiens), Q8IZU0 (parent)
# chain: MAAWGKKHAGKDPVRDECEERNRFTETREEDVTDEHGEREPFAETDEHTGANTKKPEDTAEDLTAKRKRMKMDKTCSKTKNKSKHALRKKQLKRQKRDYIHSLKLLNVLEEYITDEQKEEEEEEGEEEELIRIFQEQQKKWQQYRSVRRERLKEMKLLRDQFVKALEDFEDLCDRVFSDEDSELDN
# partner: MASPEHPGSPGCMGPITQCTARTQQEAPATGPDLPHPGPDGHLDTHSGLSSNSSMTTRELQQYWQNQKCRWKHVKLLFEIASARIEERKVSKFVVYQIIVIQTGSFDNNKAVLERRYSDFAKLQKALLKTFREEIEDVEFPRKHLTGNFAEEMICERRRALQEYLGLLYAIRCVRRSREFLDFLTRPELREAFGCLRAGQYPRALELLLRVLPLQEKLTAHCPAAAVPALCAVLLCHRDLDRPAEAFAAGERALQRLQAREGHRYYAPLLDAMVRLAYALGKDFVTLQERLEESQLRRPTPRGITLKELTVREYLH
# B6: Dolichyl-diphosphooligosaccharide--protein glycosyltransferase subunit 1 (Homo sapiens), P04843 (parent)
# chain: MEAPAAGLFLLLLLGTWAPAPGSASSEAPPLINEDVKRTVDLSSHLAKVTAEVVLAHLGGGSTSRATSFLLALEPELEARLAHLGVQVKGEDEEENNLEVRETKIKGKSGRFFTVKLPVALDPGAKISVIVETVYTHVLHPYPTQITQSEKQFVVFEGNHYFYSPYPTKTQTMRVKLASRNVESYTKLGNPTRSEDLLDYGPFRDVPAYSQDTFKVHYENNSPFLTITSMTRVIEVSHWGNIAVEENVDLKHTGAVLKGPFSRYDYQRQPDSGISSIRSFKTILPAAAQDVYYRDEIGNVSTSHLLILDDSVEMEIRPRFPLFGGWKTHYIVGYNLPSYEYLYNLGDQYALKMRFVDHVFDEQVIDSLTVKIILPEGAKNIEIDSPYEISRAPDELHYTYLDTFGRPVIVAYKKNLVEQHIQDIVVHYTFNKVLMLQEPLLVVAAFYILFFTVIIYVRLDFSITKDPAAEARMKVACITEQVLTLVNKRIGLYRHFDETVNRYKQSRDISTLNSGKKSLETEHKALTSEIALLQSRLKTEGSDLCDRVSEMQKLDAQVKELVLKSAVEAERLVAGKLKKDTYIENEKLISGKRQELVTKIDHILDAL
# B7: Guanine nucleotide exchange factor for Rab-3A (Homo sapiens), Q8TBN0 (parent)
# chain: MWSGPPQPDQGLPPPLAAVPVPWKSTDPCQGHRESPGALVETSAGEEAQGQEGPAAAQLDVLRLRSSSMEIREKGSEFLKEELHRAQKELKLKDEECERLSKVREQLEQELEELTASLFEEAHKMVREANMKQAASEKQLKEARGKIDMLQAEVTALKTLVITSTPASPNRELHPQLLSPTKAGPRKGHSRHKSTSSTLCPAVCPAAGHTLTPDREGKEVDTILFAEFQAWRESPTLDKTCPFLERVYREDVGPCLDFTMQELSVLVRAAVEDNTLTIEPVASQTLPTVKVAEVDCSSTNTCALSGLTRTCRHRIRLGDSKSHYYISPSSRARITAVCNFFTYIRYIQQGLVRQDAEPMFWEIMRLRKEMSLAKLGFFPQEA
# partner: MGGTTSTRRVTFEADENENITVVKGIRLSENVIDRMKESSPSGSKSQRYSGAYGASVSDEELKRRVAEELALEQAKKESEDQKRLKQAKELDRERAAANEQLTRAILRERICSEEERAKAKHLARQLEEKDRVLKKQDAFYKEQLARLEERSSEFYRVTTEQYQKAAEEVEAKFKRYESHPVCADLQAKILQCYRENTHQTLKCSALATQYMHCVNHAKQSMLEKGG
# Variants of: B1
# Settings: with blk_human BLK
row,Variant,effect of a mutation on the interaction
1,A140D,with no effect

# Variants of: B1
# Settings: with nck2_human NCK2, O43639
# nck2_human NCK2, O43639, sequence (O43639 whole entry): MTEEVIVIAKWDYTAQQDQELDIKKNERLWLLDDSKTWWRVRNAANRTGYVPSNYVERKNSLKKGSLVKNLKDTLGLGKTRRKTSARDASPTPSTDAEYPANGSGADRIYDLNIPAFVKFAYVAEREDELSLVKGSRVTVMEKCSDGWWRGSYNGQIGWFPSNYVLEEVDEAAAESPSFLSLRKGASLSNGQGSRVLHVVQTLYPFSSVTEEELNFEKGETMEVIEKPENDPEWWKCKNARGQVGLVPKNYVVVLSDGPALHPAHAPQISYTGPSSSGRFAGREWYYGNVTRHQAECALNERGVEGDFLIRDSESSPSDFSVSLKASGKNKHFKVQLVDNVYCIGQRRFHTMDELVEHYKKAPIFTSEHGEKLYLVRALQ
row,Variant,effect of a mutation on the interaction
1,A140D,with no effect

# Variants of: B1
# Settings: with abi2_human ABI2, Q9NYB9
# abi2_human ABI2, Q9NYB9, sequence (Q9NYB9 whole entry): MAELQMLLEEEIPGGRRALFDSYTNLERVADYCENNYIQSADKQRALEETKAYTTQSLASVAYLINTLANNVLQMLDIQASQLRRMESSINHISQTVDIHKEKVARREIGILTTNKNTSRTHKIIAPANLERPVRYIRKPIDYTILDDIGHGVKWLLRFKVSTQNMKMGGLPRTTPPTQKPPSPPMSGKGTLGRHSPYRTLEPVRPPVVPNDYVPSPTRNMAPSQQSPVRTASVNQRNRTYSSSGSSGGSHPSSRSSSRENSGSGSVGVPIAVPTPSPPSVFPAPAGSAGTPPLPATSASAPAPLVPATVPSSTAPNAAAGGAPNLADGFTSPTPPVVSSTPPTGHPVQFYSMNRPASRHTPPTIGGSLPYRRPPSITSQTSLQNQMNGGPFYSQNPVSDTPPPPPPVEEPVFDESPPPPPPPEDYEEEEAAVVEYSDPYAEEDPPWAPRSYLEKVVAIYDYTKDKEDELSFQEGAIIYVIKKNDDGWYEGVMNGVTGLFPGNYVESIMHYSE
row,Variant,effect of a mutation on the interaction
1,A140D,with no effect

# Variants of: B1
# Settings: with fyn_human FYN
row,Variant,effect of a mutation on the interaction
1,A140D,with no effect

# Variants of: B2
# Settings: with st2b1_human SULT2B1, O00204
row,Variant,effect of a mutation on the interaction
1,V223M,with no effect

# Variants of: B3
# Settings: with creb3_human CREB3, O43889
row,Variant,effect of a mutation on the interaction
1,I107V,with no effect

# Variants of: B4
# Settings: with skp1_human SKP1, P63208
# skp1_human SKP1, P63208, sequence (P63208 whole entry): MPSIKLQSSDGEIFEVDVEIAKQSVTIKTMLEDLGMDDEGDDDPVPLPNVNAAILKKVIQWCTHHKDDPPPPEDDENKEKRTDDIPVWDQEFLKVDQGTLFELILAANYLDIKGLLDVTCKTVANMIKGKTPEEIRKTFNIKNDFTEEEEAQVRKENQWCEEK
row,Variant,effect of a mutation on the interaction
1,D507N,with no effect
2,A703T,with no effect
3,T532S,with no effect

# Variants of: B5
# Settings: with snx20_human SNX20, Q7Z614
row,Variant,effect of a mutation on the interaction
1,R23H,with no effect

# Variants of: B6
# Settings: with ubql1_human UBQLN1, Q9UMX0
# ubql1_human UBQLN1, Q9UMX0, sequence (Q9UMX0 whole entry): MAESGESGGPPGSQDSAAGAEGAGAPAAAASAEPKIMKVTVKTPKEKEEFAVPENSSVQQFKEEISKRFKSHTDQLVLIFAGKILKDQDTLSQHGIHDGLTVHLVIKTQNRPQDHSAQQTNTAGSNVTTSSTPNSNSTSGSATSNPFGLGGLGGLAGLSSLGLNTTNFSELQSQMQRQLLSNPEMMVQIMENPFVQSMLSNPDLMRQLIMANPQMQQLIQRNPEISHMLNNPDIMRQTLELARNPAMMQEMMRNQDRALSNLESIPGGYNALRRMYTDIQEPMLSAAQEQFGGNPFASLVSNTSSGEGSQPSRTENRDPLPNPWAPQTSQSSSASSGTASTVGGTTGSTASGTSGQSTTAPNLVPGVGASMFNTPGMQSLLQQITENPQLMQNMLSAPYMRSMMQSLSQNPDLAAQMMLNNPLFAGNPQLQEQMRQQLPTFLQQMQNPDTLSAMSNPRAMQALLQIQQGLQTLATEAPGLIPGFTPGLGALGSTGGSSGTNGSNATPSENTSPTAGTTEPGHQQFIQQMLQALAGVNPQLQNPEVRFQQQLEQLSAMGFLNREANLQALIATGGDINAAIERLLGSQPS
row,Variant,effect of a mutation on the interaction
1,F203L,disrupting interaction strength

# Variants of: B6
# Settings: with sgta_human SGTA
row,Variant,effect of a mutation on the interaction
1,F203L,with no effect

# Variants of: B7
# Settings: with mic19_human CHCHD3, Q9NX63
row,Variant,effect of a mutation on the interaction
1,S190P,with no effect
